B1: Tyrosine-protein phosphatase non-receptor type 23 (Mus musculus), Q6PB44 (parent)
chain: MEAVPRMPMIWLDLKEAGDFHFQSAVKKFVLKNYGENPEAYNEELKKLELLRQNAIRVARDFEGCSVLRKYLGQLHYLQSRVPMGSGQEAAVAVTWTEIFSGKSVSHEDIKYEQACILYNLGALHSMLGAMDKRVSEEGMKVSCTHFQCAAGAFAYLREHFPQAFSVDMSRQILTLNVNLMLGQAQECLLEKSMLDNRKSFLVARISAQVVDYYKEACRALENPDTASLLGRIQKDWKKLVQMKIYYFAAVAHLHMGKQAEEQQKFGERVAYFQSALDKLNEAIKLAKGQPDTVQDALRFAMDVIGGKYNSAKKDNDFIYHEAVPALDTLQPVKGAPLVKPLPVNPTDPAVTGPDIFAKLVPMAAHEASSLYSEEKAKLLREMLAKIEDKNEVLDQFMDSMQLDPETVDNLDAYNHIPPQLMEKCAALSVRPDTVKNLVQSMQVLSGVFTDVEASLKDIRDLLEEDELQEQKLQETLGQAGAGPGPSVAKAELAEVRREWAKYMEVHEKASFTNSELHRAMNLHVGNLRLLSGPLDQVRAALPTPALTPEDKAVLQNLKRILAKVQEMRDQRVSLEQQLRELIQKDDITASLVTTDHSEMKKLFEEQLKKYDQLKVYLEQNLAAQDNVLRALTEANVQYAAVRRVLSELDQKWNSTLQTLVASYEAYEDLMKKSQEGKDFYADLESKVATLLERAQSICRAQEAARQQLLDRELKKKAPPPRPTAPKPLLSRREEGEAVEAGDTPEELRSLPPDMMVGPRLPDPFLGTTAPLHFSPGPFPSSTGPATHYLSGPLPPGTYSGPTQLMQPRAAVPMAPATVLYPAPAYTSELGLVPRSSPQHGIVSSPYAGVGPPQPVVGLPSAPPPQLSGPELAMTVRPATTTVDSVQAPISSHTAPRPNPTPALPQPCFPVPQPVPQSVPQPQPLPVPYTYSIGTKQPLPAPYTYSIGTKQHLTGPLPQHQFPPGIPTGFPVPRTGPQAQAQPQPQPQPQPQPQPQPQPQPQPQSQSQPQPQPQPQPQRPAFGPQPTQQPLPFQHPHLFPSQAPGILPPPPPTPYHFTPQPGVLGQPPPTLHTQLYPGPSQDPLPPHSGALPFPSPGPPHPHPTLAYGPAPSPRPLGPQATPVSIRGPPPASQPTPSPHLVPSPAPSPGPGPVPSRPPTAEPPPCLRRGAAAADLLSSSPESQHGGTQPPGGGQPLLQPTKVDAAEGRRPQALRLIEQDPYEHPERLQQLQQELEAFRGQLGDAGALDAIWRELQEAQEHDARGRSIAIARCYSLKNRHQDVMPYDSNRVVLRSGKDDYINASCVEGLSPYCPPLVATQAPLPGTAADFWLMVHEQKVSVIVMLVSEAEMEKQKVARYFPTERGQPMVHGALSVALSSIRTTETHVERVLSLQFRDQSLKRSLVHLHFPTWPELGLPDSPGNLLRFIQEVHAHYLHQRPLHTPIVVHCSSGVGRTGAFALLYAAVQEVEAGNGIPELPQLVRRMRQQRKHMLQEKLHLKFCHEALVRHVEQVLQRHGVPPPGKPVASVNISQKNHLPQDSQDLVLGGDVPISSIQATIAKLSIRPLGGLDSPAASLPGLVEPPGLPPASLPESTPVPSSSPPPLSSPLPEAPQPEEEPSVPEAPSLGPPSSSLELLASLTPEAFSLDSSLRGKQRMSKQNFLQAHNGQGLRAAQPTDDPLSLLDPLWTLNKT
partner: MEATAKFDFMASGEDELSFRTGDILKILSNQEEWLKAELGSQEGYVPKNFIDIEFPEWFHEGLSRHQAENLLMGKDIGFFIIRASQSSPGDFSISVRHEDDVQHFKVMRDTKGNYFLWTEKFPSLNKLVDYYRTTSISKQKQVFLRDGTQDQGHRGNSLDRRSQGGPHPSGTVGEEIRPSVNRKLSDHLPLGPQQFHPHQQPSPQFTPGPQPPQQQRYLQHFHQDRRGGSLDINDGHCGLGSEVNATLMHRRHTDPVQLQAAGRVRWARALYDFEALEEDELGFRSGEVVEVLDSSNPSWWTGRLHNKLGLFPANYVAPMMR

Variants of: B1
Conditions: with grap2_mouse Grap2, O89100

| Variant | effect of a mutation on the interaction |
| --- | --- |
| R722A | decreasing interaction |
| P720A;R722A | disrupting interaction |
| K727A | decreasing interaction strength |

Further lines, results first:

| effect of a mutation on the interaction | Variant |
| --- | --- |
| disrupting interaction strength | K727A;P728A |
| decreasing interaction strength | K727H |

Reference: IntAct's records for PubMed 19523899
